# Experiment: label from the status in PepcDB records
# 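Also: failed if final PepcDB status was selected cloned or expressed and not failed if soluble or beyond.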
row,Sequence,protein production
1,MKGEESVQLQSIEKRVSSGHSPSCAEILLSTIQEMNREENLLKALDLFTQRSLVLFDCDVAAIYLLEQGKYKPFSVSFRDDKDRETLMLREFPQDFREIGTEVVETDEEWVLALSHFGKTLGAYVLKGRRSQCRDEGSAVFVKQVISIISSFIFERILKIDSLSREQALTLLLRGTEILVRADSEEQLLSEAGEMAMEILFLPGGFFLLEGAGGTWEIRSPFGRLKQEMEWDWRTWVRQYISKEECCLRSAKVHFFDIENNPFKWERVWIHPLQTHSGVVGELWLMNAGKYLNDQEQEILTAFIRVVGVALETIRQREELARLANTDRLTGILNRQGFEQRVREEIASTLRRDSRFLFLVLDLDRFKQLNDTLGHPMGDRALKEIAQNLRCAVREQDIVARTGGDEFTVVLTDIALNEESLTVIERMRKSMHLEEYNLGVSIGVAEFPTEGRTYDELYRLADQRLYRGKNSGKGNIIAD,failed
2,MKGIINMATFKQYKTKSGAFWEAFTSVGKDTNGKAKRMHKRGFKTKKEAQLWTSNVQTDFTKNGFIANDNITFAELYTKWFNEDYKEQVKESTYMITDDIFRLHILPELGSQRVKRITVAQCQSIVHKWLNQGFKTYRRFRTYAISVFDFGVRMELTTRNPMAKTSIPKQKTKPQAPHVDFYEKSELLHFLDCASKHENPQAFMFFRLLAFTGLRRGEALALQWSDINFETNELTVNKTQAVGKRWRTIIQTPKTNTSYRTIVLDPDTAQWLHKWKMTQARQCFELGFNANDPSQLVFTNQQNKLMSPSTVNYFNWSICKKYGLRHIKIHAFRHTFCTLAFEAHAGINEVSKTLGHADLKITEQIYLHVTKKQKNETASKLARYMSEL,failed
3,MKGLVELGEKAPDFTLPNQDFEPVNLYEVLKRGRPAVLIFFPAAFSPVCTKELCTFRDKMAQLEKANAEVLAISVDSPWCLKKFKDENRLAFNLLSDYNREVIKLYNVYHEDLKGLKMVAKRAVFIVKPDGTVAYKWVTDNPLNEPDYDEVVREANKIAGELVA,not failed
4,MKGRLLQRLRQLSISNSLRGAFLTGALLTLIVSMVSLYSWHEQSSQVRYSLDEYFPRIHSAFLIEGNLNLAVDQLNEFLLAPNTTVRLQLRTQIIQHLDKIERLSQGLQLAERRQLAVILQDSRTLLAELDNALYNMFLVREKVSELSARIDWLHDDFTTELNSLVQDFTWQQGTLLDQIEANQGDAAQYLQRSREVQNEQQQVYTLARIENQIVDDLRDRLNELKSGNNDGMLVETHIRYLENLKKTADENIRALDDWPSTITLRQTIDELLEIGMVKNKMPDTMRDYVAAQKALLDASRAREATLGRFRTLLEAQLGSSHQQMQTFNQRLEQIVRVSGGLILVTTLLALLLAWGLNHYFIRSRLVKRFTALNQAVVQIGLGRTDSTIPVYGRDELGRIARLLRHTLGQLNMQRRQLEQEVAERKEIEADLRAMQDELIQTAKLAVVGQTMTTLAHEINQPLNALSMYLFTAGRAIEQGQSGQARNTLTKAEGLINRIDAIIRSLRQFTRRAELETPLYPVDLRQTFVAAWELLAMRHQSRQGALSLPTDTVWVSGDEVRIQQVLVNVLANALDACSHDAAIAVTWQTQGEALEVYIADNGPGWPGALLPSLLKPFTTSKAVGLGIGLSISVSLMAQMKGDLRLASTLTRNACVVLQFSVTDVDDVE,failed
5,MKGSVKKDKKTGKYFYIVDIDIDPLTGKRKQKKKRGFTSKKEAENALTNLLSEVHTGTYVEPSKLSYGEYLESWFNTKRHSVGIQTAKVLKGYLNSRIIPSLGNIKLAKLTSLHMQNYVNSLRDEGLKRGTIEKIIKVIRNSLEHAIDLELITKNVAAKTKLPKADKEELTVWNEQEVQLFLKAAQDGRYSIVFHMALVTGMRQGELLGLRWKDVDLEKGHLIISQTLSHDGKTFLVGGKTKSSLRKILLPASTIAKLKKHRAVILKEKLSQGEEYQDNDLVMCTPSGTPINPANVRRSLNALIQKAAVPKIRFHDLRHTHATLLLAKGVNVKVISERLGHSNIKITLDTYSHVLPTMQEDAVNKMEEIL,failed
6,MKGVIMIIDGMADRPLEKLSGRTPLEAASTPNMDRIAESGINGIMDPIKPGVRAGSDTSHLSILGYDPYRVYTGRGPFEAAGVGLDVKPGDIAFRCNFATADEDMIITDRRAGRIRSGTSSIARTINSMTIEGFEDVEIIFRESTGHRAVLVLRGPGLGDKVSDADPKVEGKPPKKIKALDGSPESRKTAEVLNRIVKESYEILRDHPVNTGRIERGEAPANIILPRGAGAVPHVEKFQERYDLKAACIAETGLIKGIGHLTGMDVIDVEGATGGIDTDLESIKNAISSAIAADYDFLLINIDGADEAGHDGDLEGKVRFIERVDSILGDLMGDDIYFILTADHSTPVSVMDHTGDPVPIAITGPEVRVDDVTSFSERAAAAGGLCRIRGSDVMDILLDLMNKKEKFGALEHHHHHH,failed
7,MKGVRSMMGNLVITIGRECGSAGRLIGQKLAADLGVKCYDKELLTLAAKNSGLCEELFKTHDEKPTSSFLYSLVMDTYSLGYNTSAYMDMPINHKIFLAQFDTIKKLAEEESCVIVGRCADYALADYPNTVSVFICGDEEDKIRHLMERHNVDEAKAKDIMIKTDKRRASYYNYYSSKRWGSCKSYDMCISSSAVGYDGAVDIIKEFAKKKQEFLKTKNYK,not failed
8,MKHAKKSLFTFIIFMTILSITFNPFSAKAAPLMLNLPAPQVDQLYIGDDYITGKLQQEVPMHYPGNAAYVLFNNKQYNITDYTVENDVNFRLKLPKTLEAGDTLNYFTITGNVLDPVAYPGQESYKLAGPFSPIEKANIQVNYVDETNQTLATSDTLSGKLGETYTTSPKAIDGYQVKETPTNATGTYTTNTETIQINYVYEKTAVEGANVSVEYINEATNESIAPTETLSGKIGTTFQAEVKEIDGYELSQVPSNQSGTYTDQTQSVIFKYKKITTPDEVAKDVTVTYKDTKGNQLADPVILKGDIGSTFETEAKSFKGYKLTKTPSNHSSVFTSDSQEVEYVYSKDDAVITPPVTPVNPDKPIINPVKPVNPATSTVPNKNISKKNTTKTVNQTGKTSTALQLPKTGDSENNLPLIIGVSLLISGVYIFTTRRKRVK,failed
9,MKHGMNARKQLWIAVICMTFVVILGTIGFMTIEEISLFQAFWMTMITVLTVGYGDAVPVTQAGKVFALLIIPVGVGIVTYAIGVVAAMIIEGNLFHAVRRKKMDKQIAQLKNHIIVCGCGRVGLQVVHELQEKNIPFVVVDKDESILEQEKLLFVHGDATEDQVLHNAGILKAAGLVAIVANDAENVFITLTARGLNDTIKIVARSEKPETEEKLRRAGANKVINPSSMAGIHIAKGIANPLTVHYIDTVLYGIEQSFVIEEILVGKDSILVGKSLLESNVRNQFDVTILAISRNGDIIHNPAGQEKLKERDMIIVFGSVEKLGQFEKELQSTR,failed
10,MKHIIILGDGMADWPAESLGNKTLLQYSSTPYMDKLAAMGRTGRLVTVAPGFHPGSEVANMSVMGYNLPKVYEGRGPLEAASIGVELQPGDMAMRCNIICIEDEKIKNHSAGHITTEEADVLVRYLEEKLGSDRIHFYTGVQYRHLLVIKGGNKQLDCTPPHDVPLQPFRPLMVKAEVPEAQETAGLINNLILASQELLADHPVNQKRIAEGKDPANSIWPWSPGYRPQMEPLSGKYPAIKKGAVISAVDLINGIGHYAGLRRIAVEGATGLYNTNYENKVAAALEALKTDDFVYLHIEASDEAGHEGDFKLKQFTIENLDKRVVGPVYEAVKDWDEPVAIAVLPDHPTPCELRTHTAEPVPFLIYYPGIEPDCVQTFDEVACVEGSYGILKEDEFMNEFMKK,failed
11,MKHIQINPSILSADLARLGDDVKAVLAAGADNIHFDVMDNHYVPNLTFGPMVLKALRDYGITAGMDVHLMVKPVDALIESFAKAGATSIVFHPEASEHIDRSLQLIKSFGIQAGLALNPATGIDCLKYVESNIDRVLIMSVNPGFGGQKFIPAMLDKAKEISKWISSTDRDILLEIDGGVNPYNIAEIAVCGVNAFVAGSAIFNSDSYKQTIDKMRDELNKV,not failed
12,MKHTLVITILIIMFSNGATAEEDKRSINESTTNMIAALQQKQWIHGSQDCKNNQDPAIEVFQYDESSYVLRQNKCLSYEAPFIYVLIGKEKILVVDTGATESAEEFPLYQTVQSLNQKHSDNGKTKEREIVVIHSHSHSDHYSADSQFVGQANVTVVAANNTGVNEFFDFEKWPEQQTNFELGGRSITIIPTPGHQEEAISVYDPQTKWLLTGDTFYPGYIYVKTWQDYKNSIARLVEFTNNHSVSAILGSHIEMTNKAGEYYEIGTIYQPNESSLLLTPSDLTALNEKLQQVDEPEKIAMDSLIVEPLGALPKLISSIAKWFIG,failed
13,MKIAILCASGKVGKEISKEALKRNLEPVCFVRNSSKMNEFLPQAKIVQRDLFELDSKDLIDFDIIIDAFGEWENLSLHKKHIECLSVILQGSKAKLFVVGGAGSLYMDENHTTRLMDMPDFPKEYLDIAKASAEVLEFLRNEKGFKWVYVSPSAIFSPDLPKSNHYKIIGEKFEVNANNESKISYSDYASAMIDIVLNSCYENTRIGVISL,failed
14,MKIAIVRLSALGDIIVSAVFLAVIKECLPNAQIEWFVDERFSAILEHSPYIDKLHPIALKSALKTLNPLKIFKLFKSLRAYEYDIIIDMQGLVKSALITQMLKAPKKVGFDYASAREGLSMFFYSQKVSIAYDEPVLKRNFTLLSHALNLPQKEISKEISESLSSRAKAFSYQPSPKIDALNLNKNKPKILFILETSKINKTYPIERFKELALILENFQICLLWHADEYKATTLYHALKHQRDVLLLPKLTLNEVKALLFKMDLIIGGDTGITHLAWALQKPSITLYGNTPMERFKLESPINVSLTGNSNANYHKKDFSIQNIEPKKIKECVLNILKEKE,failed
15,MKIALFGTSADPPTLAHRAILIWLAQHFDQVAVWAADNPFKQGPNPETGHWASLGDRQAMLKLLVEDVQKDYATVQIWEDLSDRRSLISLQRAQQRWGLEPDYALVVGADLIRQISQWYAVKELLPAVQLVIFPRPGYGINQADLDKLAQLGGHYQLVNQGDDQAITPPISSSIYRQIRDDDLIPDPVQSYIQQRQLYRQ,failed
16,MKIEQLYTGCLAEAAYYIESEGEAIIIDPLRDIQTYVQKIERNNVTLKYIFETHFHADFVSGHLDLAEATGATIVYGPKAETTFNSHIAYDGEKISIGKITLQVLHTPGHTQESSCYLLYDEDGNKHALFTGDTLFIGDVGRPDLAIKSDLTKEDLAGMLYDSLEEKIKPLPDAITIYPAHGAGSACGKNLSKETFDTLGSQKQKNYALKAADKETFIKQVLDDLQPAPSYFNMNALLNKEGPGSVSELIKQGSIAFDVQSFENLQRQTYAVLLDTRDAKEFKKGFIPGSINIGLNGQLAPWAGTLLTNSDKPILIITDPGKEEETIIRLARVGVDQVIGYLKDGYNSWQKANKPEENIETISAAELVEKLDENINILDVRKADEYEKGHLNAAQHLPLDYINDWITTLDKNKTYYVHCAGGYRSVITESILKSRNISNVIDVSGGYGAIKAAMEPTKKRWLNAFFSFMKVK,failed
17,MKIFNLLVGGAPENLPDNLNDFEGDWIGVDRGALKLIEMGLIPEVAVGDFDSVNDQEFKEIEANAKQVIKLDPVKDDTDTESGLKYALDHDPRAHIRVLGISGGRLDHLLANVLMVLQDRFRMFAEQIELIDRQNNIRFFNSGKHTVDKLEGFKYLSFIPLTQIDVLTLDDEKYELHNAMVSNARAYVSNEFIDSKATVYLSNGLVAVIQSKD,failed
18,MKIGIIGATGRAGSRILEEAKNRGHEVTAIVRNAGKITQTHKDINILQKDIFDLTLSDLSDQNVVVDAYGVSPDEAEKHVTSLDHLISVLNGTVSPRLLVVGGAASLQIDEDGNTLLESKGLREAPYYPTARAQAKQLEHLRSHQAEFSWTYISPSAMFEPGERTGDYQIGKDHLLFGSDGNSFISMEDYAIAVLDEIERPNHLNERFTVAGK,failed
19,MKIIGFACQWCAYQAADLAGSLKMKYPESIRLLRVPCSGRVNAEFILKALLSGADGVFVAGCPISECHYRSGNRIAKTKVALLKRLLPEFGLESGRVEFLQVSSADARKFVEFAKEFDERIRKLG,failed

# Source: a protein production outcome set (Wang et al. 2014)
